Stoichiometry N and Kd data for two substances are collected here from PMC3102069, “Charge Isomers of Myelin Basic Protein: Structure and Interactions with Membranes, Nucleotide Analogues, and Calmodulin” (PLoS ONE, 2011).

Assay [1] has as its target recombinant murine 18.5-kDa myelin basic protein, C1 charge isomer analogue (rmC1) (mouse) (UniProt P04370). In words: SEC; Superdex 200 HR 10/30, room temperature; 20 mM HEPES pH 7.5, 100 mM NaCl, 10 mM CaCl2; rmMBP 25 µM with CaM 12.5-125 µM (rmMBP:CaM 2:1, 1:1, 1:2, 1:3, 1:5).
In assay [2] the target is recombinant murine 18.5-kDa myelin basic protein, pseudodeiminated C8 charge isomer analogue (rmC8) (mouse). The description is as above.
In assay [3] the target is recombinant murine 18.5-kDa myelin basic protein, C1 charge isomer analogue (rmC1) (mouse) (UniProt P04370). Kind of assay: ITC; CaM (100 µM) in the syringe titrated into rmMBP (5 µM) in the cell; 20 mM HEPES pH 7.5, 100 mM NaCl, 10 mM CaCl2; one-site model with floating, apparent stoichiometry; +15°C. On the technique in general: In ITC the heat of successive injections is recorded.
Chain of recombinant murine 18.5-kDa myelin basic protein, C1 charge isomer analogue (rmC1) (mouse) (P04370 other isoform, or with tags, fused parts or gaps): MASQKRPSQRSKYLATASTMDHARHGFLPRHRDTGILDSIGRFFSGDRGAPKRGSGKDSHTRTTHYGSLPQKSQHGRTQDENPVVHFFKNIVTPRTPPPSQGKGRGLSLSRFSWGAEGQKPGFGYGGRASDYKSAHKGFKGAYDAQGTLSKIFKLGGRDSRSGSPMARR

Assay [4] concerns the target recombinant murine 18.5-kDa myelin basic protein, pseudodeiminated C8 charge isomer analogue (rmC8) (mouse). Described as above.
The target of assay [5] is recombinant murine 18.5-kDa myelin basic protein, C1 charge isomer analogue (rmC1) (mouse) (UniProt P04370). In words: ITC; CaM (100 µM) in the syringe titrated into rmMBP (5 µM) in the cell; 20 mM HEPES pH 7.5, 100 mM NaCl, 10 mM CaCl2; one-site model with floating, apparent stoichiometry; +20°C.
In assay [6] the target is recombinant murine 18.5-kDa myelin basic protein, pseudodeiminated C8 charge isomer analogue (rmC8) (mouse). Described as above.
For assay [7], the target named is recombinant murine 18.5-kDa myelin basic protein, C1 charge isomer analogue (rmC1) (mouse) (UniProt P04370). In words: ITC; CaM (100 µM) in the syringe titrated into rmMBP (5 µM) in the cell; 20 mM HEPES pH 7.5, 100 mM NaCl, 10 mM CaCl2; one-site model with floating, apparent stoichiometry; +25°C.
The target in assay [8] is recombinant murine 18.5-kDa myelin basic protein, pseudodeiminated C8 charge isomer analogue (rmC8) (mouse). The assay is described as above.
The target of assay [9] is recombinant murine 18.5-kDa myelin basic protein, C1 charge isomer analogue (rmC1) (mouse) (UniProt P04370). In words: ITC; CaM (100 µM) in the syringe titrated into rmMBP (5 µM) in the cell; 20 mM HEPES pH 7.5, 100 mM NaCl, 10 mM CaCl2; one-site model with floating, apparent stoichiometry; +30°C.
Assay [10] has as its target recombinant murine 18.5-kDa myelin basic protein, pseudodeiminated C8 charge isomer analogue (rmC8) (mouse). The description is as above.
The target in assay [11] is recombinant murine 18.5-kDa myelin basic protein, C1 charge isomer analogue (rmC1) (mouse) (UniProt P04370). Kind of assay: ITC; CaM (100 µM) in the syringe titrated into rmMBP (5 µM) in the cell; 20 mM HEPES pH 7.5, 100 mM NaCl, 10 mM CaCl2; one-site model with floating, apparent stoichiometry; 35°C (temperature from Table 3).
In assay [12] the target is recombinant murine 18.5-kDa myelin basic protein, pseudodeiminated C8 charge isomer analogue (rmC8) (mouse). Described as above.
In another assay the target is calmodulin (UniProt P0DP23). The note with it: cited from earlier work.

Broadly, the stoichiometry N is a count of units in the complex or per binding partner. Regarding “calmodulin (CaM), recombinant (from UniProt P0DP23 1-149) (natural protein)”, the stoichiometry N in assay [1] was found to be 2; in assay [2], 2; in [3], 1.5; in [4] it was 1.5; in assay [5], 1.5; in [6], 1.3. Moreover, the stoichiometry N in assay [7] worked out at 1.9; in assay [8] it was 1.2; in [9], 1.4; in assay [10], 1; in assay [11], 0.9; in [12], 0.8. Also, the values for the Kd in [4] and in assay [12] were 1200 nM and 1900 nM, respectively.
For “myelin basic protein (brain) (from UniProt P02687)”, the Kd in the assay with calmodulin was 10 nM.
